Results as given in patent US20240327505A1.

Experiments:
Experiment in all cases: cell-based or functional assay
[1] = molecular target: SARS-CoV-2 "Alpha" UK B.1.1.7 full-length Spike protein on pseudovirus (SARS-CoV-2) (UniProt P0DTC2)
[2] = molecular target: SARS-CoV-2 "Beta" SA B.1.351 full-length Spike protein on pseudovirus (SARS-CoV-2) (UniProt P0DTC2)
[3] = molecular target: SARS-CoV-2 "Delta" B.1.617.2 full-length Spike protein on pseudovirus (SARS-CoV-2) (UniProt P0DTC2)
[4] = molecular target: SARS-CoV-2 "Delta-plus" B.1.617.2.1 full-length Spike protein on pseudovirus (SARS-CoV-2) (UniProt P0DTC2)
[5] = molecular target: SARS-CoV-2 "Epsilon" B.1.427/9 full-length Spike protein on pseudovirus (SARS-CoV-2) (UniProt P0DTC2)
[6] = molecular target: SARS-CoV-2 "Gamma" Brazil P.1.B.1.1.28 full-length Spike protein on pseudovirus (SARS-CoV-2) (UniProt P0DTC2)

Substance	Pseudovirus Neturalization [1] [µg/mL]	Pseudovirus Neturalization [2] [µg/mL]	Pseudovirus Neturalization [3] [µg/mL]	Pseudovirus Neturalization [4] [µg/mL]	Pseudovirus Neturalization [5] [µg/mL]	Pseudovirus Neturalization [6] [µg/mL]
Anti-Nucleocapsid (Neg Control) (antibody)	> 50	> 50	> 50	> 50	> 50	> 50
CA-1 (AB-009265) (antibody)	0.209	> 50	2.19	41.5	0.33	> 50
CB-6 (AB-009264) (antibody)	0.417	> 50	0.004	> 50	0.009	> 50
COVA1-21 (AB-010159) (antibody)	> 50	> 50	> 50	> 50	> 50	> 50
CR3022 (AB-009073) (antibody)	> 50	> 50	> 50	> 50	> 50	> 50
LY-CoV555 | Bamlanivimab (AB-010160) (antibody)	0.0012	> 50	19.3	6.93	7.82	> 50
REGN10933 | Casirivimab (AB-010156) (antibody)	–	1.09	0.001	0.001	0.001	0.666
REGN10987 | Imdevimab (AB-010157) (antibody)	–	–	0.001	0.001	0.001	–
